Results taken from article PMC8822698, “Structural and biological insights into Klebsiella pneumoniae surface polysaccharide degradation by a bacteriophage K1 lyase: implications for clinical use” (Journal of Biomedical Science, 2022).

Molecular target: the molecule itself
Assay: AUC; sedimentation at 20 °C and 20,000 rpm; 25 mM Tris-HCl, 100 mM NaCl, pH 7.5; data analysed with SEDFIT

B1: K1 CPS-specific depolymerase K1 lyase of bacteriophage NTUH-K2044-K1-1 (enzyme, UniProt A0A068Q5Q5 1-651, looked up)
chain: MALIRLVAPERVFSDLASMVAYPNFQVQDKITLLGSAGGDFTFTTTASVVDNGTVFAVPGGYLLRKFVGPAYSSWFSNWTGIVTFMSAPNRHLVVDTVLQATSVLNIKSNSTLEFTDTGRILPDAAVARQVLNITGSAPSVFVPLAADAAAGSKVITVAAGALSAVKGTYLYLRSNKLCDGGPNTYGVKISQIRKVVGVSTSGGVTSIRLDKALHYNYYLSDAAEVGIPTMVENVTLVSPYINEFGYDDLNRFFTSGISANFAADLHIQDGVIIGNKRPGASDIEGRSAIKFNNCVDSTVKGTCFYNIGWYGVEVLGCSEDTEVHDIHAMDVRHAISLNWQSTADGDKWGEPIEFLGVNCEAYSTTQAGFDTHDIGKRVKFVRCVSYDSADDGFQARTNGVEYLNCRAYRAAMDGFASNTGVAFPIYRECLAYDNVRSGFNCSYGGGYVYDCEAHGSQNGVRINGGRVKGGRYTRNSSSHIFVTKDVAETAQTSLEIDGVSMRYDGTGRAVYFHGTVGIDPTLVSMSNNDMTGHGLFWALLSGYTVQPTPPRMSRNLLDDTGIRGVATLVAGEATVNARVRGNFGSVANSFKWVSEVKLTRLTFPSSAGALTVTSVAQNQDVPTPNPDLNSFVIRSSNAADVSQVAWEVYL
notes: K1 CPS-specific depolymerase (K1 lyase) encoded by orf34 of bacteriophage NTUH-K2044-K1-1, GenBank BAP15746, amino acids 1-651; Cloned into pET28a via NdeI and XhoI; This cloning would likely give an N-terminal His6 tag, but that is a surmise; also called K1 CPS depolymerase; polysaccharide depolymerase (PDP); source: E. coli BL21 (DE3), purified (nickel-chelating Sepharose, Superdex-200 gel …)
  stoichiometry N: 3
